Laboratory results: patent US20050075291

Target: reconstituted tissue factor (Innovin, Dade) (UniProt P13726)
UniProt P13726, sequence (P13726 33-295): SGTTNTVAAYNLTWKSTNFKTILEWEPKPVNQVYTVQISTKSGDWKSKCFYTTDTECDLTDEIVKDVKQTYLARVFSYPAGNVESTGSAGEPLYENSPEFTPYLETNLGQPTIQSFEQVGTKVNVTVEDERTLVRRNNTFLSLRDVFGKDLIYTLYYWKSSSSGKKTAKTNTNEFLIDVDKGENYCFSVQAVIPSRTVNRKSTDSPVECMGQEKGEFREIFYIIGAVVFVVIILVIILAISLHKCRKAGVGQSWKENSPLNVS

Substance | competition with active-site modified VIIa (0-3.2 nM), clotting time | competition assay (clotting time as a function of added FFR-VIIa, 0 to 3.5 nM)
factor VII with leucine for phenylalanine at position 5 (which contained the Q11E33 mutations) | had much lower activity than the Q11E33 mutant | 
Human factor VIIa-T9Q11E33 |  | Human factor VIIa-T9Q11E33 exhibited a severe loss of competitive binding affinity
